# Assay results as given in article PMC12207360, “Hyperpolarization Modulation of the T‐Type hCav3.2 Channel by Human Synenkephalin [1–53], a Shrew Neurotoxin Analogue without Paralytic Effects” (Angewandte Chemie (International Ed. in English), 2025).
# Where no end group is shown, it is not given here.
# System: glutamyl endopeptidase (Glu-C)
# Test: Glutamyl endopeptidase (Glu-C) digestion
# Conditions: intact peptide, without disulfide reduction
# Method: To determine the connectivity of disulfide bonds in synthetic 2, enzymatic digestion and subsequent fragment peptide analysis were performed. […] However, due to high proteolytic stability, analysis of these degraded products provided little information on the disulfide bond connectivity in 2. To perform stepwise S‐alkylation with limiting reduction of disulfide bonds,^[ [52], [53] ^] 2 was denatured with 6 M aq. guanidine hydrochloride (GdmCl)/0.1 M aq. citrate, followed by tris(2‐carboxyethyl)phosphine (TCEP) reduction and Michael addition to N‐ethylmaleimide (NEM). As a result, we obtained six kinds of S‐alkylated products (2SS‐a/b/c and 1SS‐a/b/c) with one or two disulfide bonds cleaved, respectively, along with unreacted 2 (3SS) and a fully S‐alkylated product (0SS) (Scheme 1a and Figure S4a). HPLC‐purified 1SS‐a (3) and 1SS‐b (4), which have different patterns of four Cys(S‐Nem) residues, were then reduced with DTT and alkylated with iodoacetamide.
substance,measurement,value
"human synenkephalin [1–53] (ECSQDCATCSYRLVRPADINFLACVMECEGKLPSLKIWETCKELLQLSKPELP; disulfide (positions not given here); also: Type II disulfides, places not given here; UniProt P01210 25-77, looked up, fragment) [compound 2, human synenkephalin N-terminal part [1–53], three disulfide bonds Cys(I)–Cys(V), Cys(II)–Cys(IV), Cys(III)–Cys(VI)]",proteolytic stability toward Glu-C,partially digested
